The numbers were not newly measured in PMC6868133 (Scientific Reports, 2019), which cites them from elsewhere.

For data set [1] the following is noted: human, in vivo.
The conditions of data set [2]: rhesus monkey, in vivo, sc.
Data set [3] has as its system fasting plasma glucose levels. The conditions noted are these: humans. From the text: The goal of the current study was to evaluate the pharmacokinetic properties of a single-dose of PT320 in healthy nonhuman primates. […] Systemic Exenatide ...
The mark [4] stands for this setting: Long-Acting (> 24 hr), ref supplement [3-5].

Read-outs that look alike come from different tables or passages of the source.

As to Exenatide, in data set [1], the “patients with higher-titer antibodies (≥625)” value is given as 5% and the “patients with low anti-Exenatide antibody titers (≤125)” value is listed as 32%. The “terminal disappearance half-life from plasma” value in data set [2] was 0.78 to 1.94 h. The “minimally effective concentration (level required to reduce fasting plasma glucose levels)” value in data set [3] is “approximately 50 pg/ml”.

For the substance Semaglutide, under setting [4], the “Half Life (T1/2)” value was 140 to 170 h.

Regarding albiglutide, the “Half Life (T1/2)” value under setting [4] was 140 to 170 h. Under “long-acting GLP-1R agonists”, the T1/2 was 140 to 170 h.

On to dulaglutide, for which the “Half Life (T1/2)” value under setting [4] was 96 h. Besides, the T1/2 (long-acting GLP-1R agonists) was 96 h.

In the case of lixisenatide, the “Half Life (T1/2)” value (Short-Acting (< 24 hr), ref supplement [1,2]) is 3 h. Further, the T1/2 (short-acting GLP-1R agonist, administered once daily) was 3 h.
